# Results published in US7470669B2, “Isolated polypeptide comprising a leptin fragment” (Serono Genetics Institute, S.A., priority 1999, dated 2008).
# What was measured:
# LSR = assay: BUD assay of 125I-LDL in PLC cells transfected with truncated human LSR; format: cell-based; details: corrected for total protein, depending on oleate concentration
# Text: Method of Cloning & Testing. • 1. Digest Human LSR plasmids with enzymes of interest under appropriate conditions. Separate the appropriate insert fragment from the vector using agarose gel electrophoresis and Qiaquick gel extraction columns. Note: For constructs 1, 2, 3, 4a, 5, and 6 pTracerCMV2 LSR α was used as the source for the insert. For construct 4b, pTracerCMV2 LSR α′ was used as the source for the insert. For 4c, pTracerCMV2 LSR β was used as the source for the insert. • 2. Digest the pcDNA/HisMax vector in the appropriate reading frame with the enzymes of interest. Purify using agarose gel electrophoresis and Qiaquick gel extraction columns. • 3. If necessary, treat insert fragments with Klenow DNA polymerase or T4 DNA polymerase I to blunt 3′ overhangs. […] Verify correct clones by having them sequenced to ensure that they are in the proper reading frame and that there are no amino acid changes. • 8. […]
# BUD Assay Methods: • 1. […] Remove suramin into gamma counter tubes, and count for radioactivity. […] Recover the cell lysates into gamma counter tubes and count for radioactivity. […] After cell lysates have been counted, determine the protein concentration per mL so that data can be reported as ng ^125I-LDL bound/mg of total protein. Protein is determined using the BCA assay from Pierce according to the manufacturer's instructions. […]
# [1] = test system: bovine brain capillary endothelial cells; assay: Leptin transcytosis in blood-brain barrier in vitro model; format: cell-based; details: 10 ng/mL 125I-leptin + 2 mg/mL lactoferrin
# Experimental: Cells were incubated with ^125I-leptin alone (10,000 dpm/ng) (closed squares), with 1 μg/mL unlabelled leptin (triangles), 50 μg/mL MP (circles), 50 μg/mL HP (open squares), or 2 mg/mL lactoferrin (asterisks).
# Human leptin transport through the blood-brain barrier (BBB) is studied using an in vitro model (Dehouck, et al J Neurochem 54:1798-801, 1990 hereby incorporated herein by reference in its entirety including any figures, tables, or drawings). This model closely mimics the in vivo situation with regard to the selective passage of nutrients and drugs through the cerebro-vascular endothelium. […] Briefly, this model consists of a co-culture of bovine brain capillary endothelial cells (ECs) and rat astrocytes (FIG. 31). The astrocytes are seeded on the plastic of a six-well dish and grown for 3 weeks. […]
# Leptin transcytosis: Experiments were performed on brain capillary endothelial cells in coculture with astrocytes for 16 days. […] At the end of the experiment, the amount of radioactivity of each well was counted. […]
# The transport of molecules through the endothelial monolayer was determined for each time point as % passage: % passage of radiolabelled molecule through the endothelium: dpm found in the lower compartment at a time point divided by the initial dpm found in the upper compartment: % transport at 30 min=(lower dpm t30/upper dpm)*100.
# ob/ob mice = assay: Postprandial plasma TG response after high-fat test meal in ob/ob mice; format: in vivo, mouse; details: i.v. 0.5 μg recombinant mouse leptin and/or 2.5 mg lactoferrin, mean ± SD
# Experimental: FIGS. 11A and 11B show the effect of mouse leptin (FIG. 11A) or leptin peptide (FIG. 11B) on postprandial plasma TG response in ob/ob mice. […] Postprandial triglyceridemia was measured as described previously. Each point represents the mean±SEM (A: saline, n=8, leptin, n=7; leptin peptide: saline, n=8, leptin, n=8). […] Primary cultures of rat hepatocytes were incubated 30 min at 37° C. with increasing concentrations of mouse leptin peptide. Oleate (0.5 mM) and ^125I-LDL (20 μg/mL) were added and the cells were incubated 2 h at 37° C. After washing, the amount of 125I-LDL bound to the cell surface was measured as described in the Examples section herein.
# Mice that were fasted for 2-3 hours were gavage-fed 300 μL of a test meal consisting of 60% fat (37% saturated, 27% mono-, and 36% polyunsaturated fatty acids), 20% protein and 20% carbohydrate, and providing 56 kcal of energy/kg (1.5 g butter, 1.5 g sunflower oil, 2.5 g nonfat dry milk, 2.5 g sucrose and 3 ml water). […] TG concentrations were determined using a commercially available enzymatic kit with controls included in each assay (Precinorm L, Roche-Boehringer Mannheim; Lyotrol N, BioMérieux).
# The inhibition of the intestinal absorption of dietary lipids by leptin was also investigated. […] Blood samples were taken at 2 and 3 h after the test meal, and plasma TG concentrations were measured (see Table, below). […]
molecule,measurement,setting,value
"C-terminal portion from AA 353 to 541: truncated human LSR construct, AA 353 to 541 (protein, UniProt Q86X29 353-541, looked up, fragment) PGGYPGDVDRSSSAGGQGSYVPLLRDTDSSVASEVRSGYRIQASQQDDSMRVLYYMEKELANFDPSRPGPPSGRVERAMSEVTSLHEDDWRSRPSRGPALTPIRDEEWGGHSPRSPRGWDQEPAREQAGGGWRARRPRARSVDALDDLTPPSTAESGSRSPTSNGGRSRAYMPPRSRSRDDLYDQDDSR",increase in LDL metabolism,LSR,~2 fold
"Lactoferrin: a milk protein that inhibits the removal of dietary lipid by the liver; inhibitor of LSR (protein, UniProt P02788 20-710, looked up) Lactotransferrin: GRRRSVQWCAVSQPEATKCFQWQRNMRKVRGPPVSCIKRDSPIQCIQAIAENRADAVTLDGGFIYEAGLAPYKLRPVAAEVYGTERQPRTHYYAVAVVKKGGSFQLNELQGLKSCHTGLRRTAGWNVPIGTLRPFLNWTGPPEPIEAAVARFFSASCVPGADKGQFPNLCRLCAGTGENKCAFSSQEPYFSYSGAFKCLRDGAGDVAFIRESTVFEDLSDEAERDEYELLCPDNTRKPVDKFKDCHLARVPSHAVVARSVNGKEDAIWNLLRQAQEKFGKDKSPKFQLFGSPSGQKDLLFKDSAIGFSRVPPRIDSGLYLGSGYFTAIQNLRKSEEEVAARRARVVWCAVGEQELRKCNQWSGLSEGSVTCSSASTTEDCIALVLKGEADAMSLDGGYVYTAGKCGLVPVLAENYKSQQSSDPDPNCVDRPVEGYLAVAVVRRSDTSLTWNSVKGKKSCHTAVDRTAGWNIPMGLLFNQTGSCKFDEYFSQSCAPGSDPRSNLCALCIGDEQGENKCVPNSNERYYGYTGAFRCLAENAGDVAFVKDVTVLQNTDGNNNEAWAKDLKLADFALLCLDGKRKPVTEARSCHLAMAPNHAVVSRMDKVERLKQVLLHQQAKFGRNGSDCPDKFCLFQSETKNLLFNDNTECLARLHGKTTYEKYLGPQYVAGITNLKKCSTSPLLEACEFLRK",amount of leptin transported,[1],significantly inhibited
same,Plasma TG 2-3 hours after test meal,ob/ob mice,2.02 ± 0.26^¶ mg/mL
